Results: paper PMC3660137

Substrate: CCCCCC(O)/C=C/C=O
Test: LC/MS of GSHNE conjugate, initial rate
Type: biochemical, Oncorhynchus kisutch
Settings: 1 mM GSH, 30 °C, 10–150 μM HNE

B1: OlfGST pi; OkGST pi; GST pi (Oncorhynchus kisutch) (protein)
chain: MGPYTITYFGVRGRCGAMRIMMADQGQEWKEILMDFADWTKGDLKASCVFGQLPKFEDGGLVLYQSNAILRHLGRNHDAYGKDGKEAARIDMMCDGVEDLRLKYGKMIYQEYDTGKDQYIKDLPNHLDKFEAVMAKNKTGFLVGDKPSFADYSLFEVLLNHLVLCSSCLDTSPSLKSFVEKMSARPKIKAFLGSDAYKKLPINGNGKQ
Protein B1 has a Km of 160 ± 60 µM, a Vmax of 0.5 µmol/min/mg and a kcat of 0.37 ± 0.09 s⁻¹. It also gave a kcat/Km of 2300 ± 1100 M⁻¹ s⁻¹.
